From US20210163555

Assays:
[1] = molecular target: Recombinant human p18 (His-p18)

Molecule: endogenous Ube3a of COS-1 cells
- levels of ubiquitinated p18 after Ube3a siRNA KD (His-ubiquitin pull-down assay) (Flag-p18): 100.0±1.8 vs. 66.8±3.7

B1: His6-E6AP (protein)
chain: MEKLHQCYWKSGEPQSDDIEASRMKRAAAKHLIERYYHQLTEGCGNEACTNEFCASCPTFLRMDNNAAAIKALELYKINAKLCDPHPSKKGASSAYLENSKGAPNNSCSEIKMNKKGARIDFKDVTYLTEEKVYEILELCREREDYSPLIRVIGRVFSSAEALVQSFRKVKQHTKEELKSLQAKDEDKDEDEKEKAACSAAAMEEDSEASSSRIGDSSQGDNNLQKLGPDDVSVDIDAIRRVYTRLLSNEKIETAFLNALVYLSPNVECDLTYHNVYSRDPNYLNLFIIVMENRNLHSPEYLEMALPLFCKAMSKLPLAAQGKLIRLWSKYNADQIRRMMETFQQLITYKVISNEFNSRNLVNDDDAIVAASKCLKMVYYANVVGGEVDTNHNEEDDEEPIPESSELTLQELLGEERRNKKGPRVDPLETELGVKTLDCRKPLIPFEEFINEPLNEVLEMDKDYTFFKVETENKFSFMTCPFILNAVTKNLGLYYDNRIRMYSERRITVLYSLVQGQQLNPYLRLKVRRDHIIDDALVRLEMIAMENPADLKKQLYVEFEGEQGVDEGGVSKEFFQLVVEEIFNPDIGMFTYDESTKLFWFNPSSFETEGQFTLIGIVLGLAIYNNCILDVHFPMVVYRKLMGKKGTFRDLGDSHPVLYQSLKDLLEYEGNVEDDMMITFQISQTDLFGNPMMYDLKENGDKIPITNENRKEFVNLYSDYILNKSVEKQFKAFRRGFHMVTNESPLKYLFRPEEIELLICGSRNLDFQALEETTEYDGGYTRDSVLIREFWEIVHSFTDEQKRLFLQFTTGTDRAPVGGLGKLKMIIAKNGPDTERLPTSHTCFNVLLLPEYSSKEKLKERLLKAITYAKGFGML
- in vitro ubiquitination of p18 (Western blot) [1]: p18 ubiquitination was only observed in the presence of Ube3a, ubiquitin, E1, E2, and ATP
